Positions count from the first letter of the chain named.
B1: COVIC-309 (antibody, V domains shown)
VH: EVQLVESGGGLVQPGRSLRLSCAASGFTFDDYAMHWVRQAPGKGLEWVSGISWNSGSIGYADSVKGRFTISRDNAKNSLHLQMNSLRAEDTALYYCANLLTPPRRYSGYDLREDYFEYWGQGTLVTVSS
VL: SSELTQDPAVSVALGQTVRITCQGDSLRSYYASWYQQKPGQAPVLVIYDRNNRPSGIPDRFSGSSSGNTASLTITGAQAEDEADYYCHSRDSSGNPLHVVFGGGTKLTVL
B2: COVIC-129 (antibody)
chain 1: QVQLQESGGGLVQAGGSLRLSCAASGRTFSEYAMGWFRQAPGKEREFVATISWSGGSTYYTDSVKGRFTISRDNAKNTVYLQMNSLKPDDTAVYYCAAAGLGTVVSEWDYDYDYWGQGTQVTVSSGGSGGSQVQLQESGGGLVQAGGSLRLSCAASGRTFSEYAMGWFRQAPGKEREFVATISWSGGSTYYTDSVKGRFTISRDNAKNTVYLQMNSLKPDDTAVYYCAAAGLGTVVSEWDYDYDYWGQGTQVTVSSGGGGSGGGGSASTKGPSVFPLAPSSKSTSGGTAALGCLVKDYFPEPVTVSWNSGALTSGVHTFPAVLQSSGLYSLSSVVTVPSSSLGTQTYICNVNHKPSNTKVDKKVEPKSCDKTHTCPPCPAPELLGGKKKPLDGEYFTLQIRGRERFEMFRELNEALELKDAQAGKEPG
chain 2: QVQLQESGGGLVQAGGSLRLSCAASGRTFSEYAMGWFRQAPGKEREFVATISWSGGSTYYTDSVKGRFTISRDNAKNTVYLQMNSLKPDDTAVYYCAAAGLGTVVSEWDYDYDYWGQGTQVTVSSGGSGGSQVQLQESGGGLVQAGGSLRLSCAASGRTFSEYAMGWFRQAPGKEREFVATISWSGGSTYYTDSVKGRFTISRDNAKNTVYLQMNSLKPDDTAVYYCAAAGLGTVVSEWDYDYDYWGQGTQVTVSSGGGGSGGGGSKRTVAAPSVFIFPPSDEQLKSGTASVVCLLNNFYPREAKVQWKVDNALQSGNSQESVTEQDSKDSTYSLSSTLTLSKADYEKHKVYACEVTHQGLSSPVTKSFNRGEC
B3: COVIC-164 (antibody, V domains shown)
VH: EVQLVESGGGLIQPGGSLRLSCAAAGLTVSSNYMNWVRQVPGKGLEWVSVIYSGGSTYYADSVKGRFTISRDNSKNTLYLQMNSLRAEDTAVYYCARDLGTLGMDVWGQGTTVTVSS
VL: DIQLTQSPSFLSASVGDRVTITCWASQGISTYLAWYQQKPGKAPKLLIYAASTLQSGVPSRFSGSGSGTEFTLTISSLQPEDFATYYCQQLNSYLPTFGQGTKVEIKR
B4: COVIC-158 (antibody, V domains shown)
VH: B3 VH with A25S, V40A, G44K, Y58F, K64R, Y79F, T90S, T101P, L102Y, M104V
VL: B3 VL with T31S, L95P, P96L, K103R, V104L
B5: COVIC-172 (antibody, V domains shown)
VH: QVQLVESGGDVVQPGRSLRLSCAASGFTFSRYGMHWVRQAPGKGLEWVAVISYDGSDKYYADSVKGRFTISRDNSKNTLYLQMNSLRAEDTAVYYCAKQLPLYYYYYGMDVWGQGTTVTVSS
VL: AIQLTQSPSSLSASVGDRVTITCRASQGISSALAWYQQKPGKAPNLLIYDASSLESGVPSRFSGSGSGTDFTLTISSLQPEDFATYYCQQFNIYPHTFGPGTKVDIKR
B6: COVIC-310 (antibody)
chain 1: QVQLVQSGAEVKKPGSSVKVSCKASGGTFGISWVRQAPGQGLEWMGRIIPILGTANHAQKFQGRVTITADKSTGTVYMELSSLRSEDTAVYYCARDGDSGSYYETLGFDYWGQGTLVTVSSGGGGSGGGGSGGGGQVQLVESGGGVVQSGRSLRLSCAASGFTFSSYAMHWVRQAPGKGLEWVAVISHDGSNTYYEDSVKGRFTISRDNSKNTLHLQVNSLRVEDTAVYYCARAKGEVRYFDWAEQGGDYWGQGTLVTVSS
chain 2: QSALTQPPSASGSPGQSVTISCTGTSSDVGGYNYVSWYQQHPGKAPKLMIYEVNKRPSGVPDRFSGSKSGNTASLTVSGLQAEDEADYYCSSYAGSNNLVFGGGTKLTVLGGGGSGGGGSGGGGSYELTQPPSVSVSPGQTARITCSGDALPKKYAYWYQQKSGQAPVLVIYEDSKRPSGIPERFSGSSSGTMATLTISGAQVEDEADYYCYSTDNSGDHGVFGGGTKLTVL
B7: COVIC-140 (antibody, V domains shown)
VH: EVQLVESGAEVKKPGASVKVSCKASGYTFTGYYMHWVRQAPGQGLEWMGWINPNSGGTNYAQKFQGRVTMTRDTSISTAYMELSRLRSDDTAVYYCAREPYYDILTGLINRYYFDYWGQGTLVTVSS
VL: QSALTQPASVSGSPGQSITISCTGTSSDVGGYNFVSWYQQHPGKAPKLMIYEVSNRPSGVSNRFSGSKSGNTASLTISGLQAEDEADYYCSSYTSSSTRVFGGGTKLTVL
B8: COVIC-311 (antibody)
chain 1: QVQLVESGGGVVQSGRSLRLSCAASGFTFSSYAMHWVRQAPGKGLEWVAVISHDGSNTYYEDSVKGRFTISRDNSKNTLHLQVNSLRVEDTAVYYCARAKGEVRYFDWAEQGGDYWGQGTLVTVSSGGGGSGGGGSGGGGQVQLVQSGAEVKKPGSSVKVSCKASGGTFGISWVRQAPGQGLEWMGRIIPILGTANHAQKFQGRVTITADKSTGTVYMELSSLRSEDTAVYYCARDGDSGSYYETLGFDYWGQGTLVTVSS
chain 2: SYELTQPPSVSVSPGQTARITCSGDALPKKYAYWYQQKSGQAPVLVIYEDSKRPSGIPERFSGSSSGTMATLTISGAQVEDEADYYCYSTDNSGDHGVFGGGTKLTVLGGGGSGGGGSGGGGQSALTQPPSASGSPGQSVTISCTGTSSDVGGYNYVSWYQQHPGKAPKLMIYEVNKRPSGVPDRFSGSKSGNTASLTVSGLQAEDEADYYCSSYAGSNNLVFGGGTKLTVL
B9: COVIC-367 (antibody, V domains shown)
VH: EVQLVESGGGLVQPGRSLRLSCAASGFTFDDYAMHWVRQAPGKGLEWVSGVSWNSGTIGYADSVKGRFIISRDNAKNSLYLQMRSLRAEDTALYYCAKDVSVYRFREQSYGMDVWGQGTTVTVLS
VL: QSALTQSASVSGSPGQSITISCTGTSSDIGGYNFVSWYQQHPGKAPKLMIYEVTTRPSGVSNRFSGSKSGNTASLTISGLQAEDEADYYCSSYTSSSLVVFGGGTKLALLG
B10: COVIC-166 (antibody, V domains shown)
VH: QVQLVESGGGVVQPGRSLRLSCAASGFTFSSYGMHWVRQAPGKGLEWVAVISYDGSDKYYADSVKGRFTISRDNSKNTLYLQMNSLRAEDTAVYYCAKTVAGYYYYYYGMDVWGQGTTVTVSS
VL: DIQMTQSPSSVSASVGDRVTVTCRASQDISSWLAWFQQKPGKAPKFLIYDASNLENGVPSRFSGSGSGTDFTLTISSLQPEDFATYYCQQAKSFPWTFGQGTKVEINR
B11: COVIC-385 (antibody, V domains shown)
VH: EVQLVESGGGLVQPGGSLRLSCKASGISVAPHAVTWVRQAPGKGLEWIGVIASNADTYYASWAKGRFTISRDNSKNTLYLQMNSLRAEDTAVYYCARHPGSAGYGYTYYYAMDPWGQGTLVTVSS
VL: DIQMTQSPSSLSASVGDRVTITCQASERVFYGIDWYQQKPGKAPKLLIYGASALWHGVPSRFSGSGSGTDYTLTISSLQPEDFATYYCQQGYMVPIGFGGGTKVEIK
B12: COVIC-360 (antibody, V domains shown)
VH: B11 VH
VL: DIQMTQSPSSLSASVGDRVTITCQASQKIHYAINWYQQKPGKAPKLLIYGTSYLGGGVPSRFSGSGSGTDFTLTISSLQPEDFATYYCQQGYIVPNSFGGGTKVEIK
B13: COVIC-64 (antibody)
chain: QVQLQESGGGLVQAGGSLRLSCAASGRTFSEYAMGWFRQAPGKEREFVATISWSGGSTYYTDSVKGRFTISRDNAKNTVYLQMNSLKPDDTAVYYCAAAGLGTVVSEWDYDYDYWGQGTQVTVSSGGSGGSQVQLQESGGGLVQAGGSLRLSCVASGSIFSINAMDWYRQAPGKQRELVAGITSGGSTNYGDFVKGRFTISRDNAKNTVYLQMDSLKPEDTAVYYCAAEVGGWGPPRPDYWGHGTQVTVSSGGGGSGGGGSKKKPLDGEYFTLQIRGRERFEMFRELNEALELKDAQAGKEPG
B14: COVIC-331 (antibody, V domains shown)
VH: EVQLVESGGGLIQVGGSLRLSCAASGLTVTSNYMNWVRQGPGKGLEWVSLIYSGGTTYYADSVKGRFTISRDDSKNTLYLQMNSLRAEDTAVYYCARPIVGARSGMDVWGQGTAVTVSS
VL: DIQMTQSPSSLSASVGDRVTITCQASQDINKYLNWYQQKPGKAPKLLIYDASNLETGVPSRFSGSGSGTDFTFTISSLQPEDLATYYCHQFDNLPGTFGGGTKVEIK
B15: COVIC-122 (antibody)
chain: QVQLQESGGGLVQAGGSLRLSCAASGRTFSEYAMGWFRQAPGKEREFVATISWSGGSTYYTDSVKGRFTISRDNAKNTVYLQMNSLKPDDTAVYYCAAAGLGTVVSEWDYDYDYWGQGTQVTVSSGGSGGSQVQLQESGGGLVQAGGSLRLSCAASGRTFSEYAMGWFRQAPGKEREFVATISWSGGSTYYTDSVKGRFTISRDNAKNTVYLQMNSLKPDDTAVYYCAAAGLGTVVSEWDYDYDYWGQGTQVTVSSGGGGSGGGGSKKKPLDGEYFTLQIRGRERFEMFRELNEALELKDAQAGKEPGGGGGSGGGGSQVQLQESGGGLVQAGGSLRLSCAASGRTFSEYAMGWFRQAPGKEREFVATISWSGGSTYYTDSVKGRFTISRDNAKNTVYLQMNSLKPDDTAVYYCAAAGLGTVVSEWDYDYDYWGQGTQVTVSSGGSGGSQVQLQESGGGLVQAGGSLRLSCAASGRTFSEYAMGWFRQAPGKEREFVATISWSGGSTYYTDSVKGRFTISRDNAKNTVYLQMNSLKPDDTAVYYCAAAGLGTVVSEWDYDYDYWGQGTQVTVSS
B16: COVIC-391 (antibody, V domains shown)
VH: QVQLVQSGAEVKKPGSSVKVSCKASGGTFSSYVINWVRQAPGQGLEWMGGIIPTLGTTNYAQKFQGRVTITADKSTSTAYMELSSLRSEDTAVYYCARAGGYSGSGSNYYMDVWGKGTTVTVSS
VL: QSVLTQPPSVSGAPGQRVTISCTGSSSNIGAGYDVHWYQQLPGTAPKLLIYANNNRPSGVPDRFSGSNSGTSASLAITGLQAEDEADYYCQSYDSSLSDSVFGGGTKLTVL
B17: COVIC-249 (antibody, V domains shown)
VH: QVQLVQPGGGVIQPGRSLRLSCTASGFTFSSYPMHWVRQAPGKGLEWVAVISYDGDNKYYADSVKGRFTISRDNSKNTLYLQMNSLKSDDTAMYYCARDYVVVILSDSFYYGMDVWGQGTTVTVSS
VL: QSALTQPRSVSGSPGQSVTISCTGTSSDVGGYNYVSWYQQYPGKAPKLMIYDVSKRPSGVPDRFSGSKSGNTASLTISGLQGEDEADYYCCSYAGSYTYVFGTGTKVTVL

Target: SARS-CoV-2 spike RBD (Wuhan-Hu-1) (Severe acute respiratory syndrome …, UniProt P0DTC2)
Experiment: SPR

In order of rising Kd:
1. B12  0.0132 nM
2. B16  0.0198 nM
3. B9  0.0301 nM
4. B11  0.0327 nM
5. B14  0.0704 nM
6. B10  0.826 nM
7. B4  1.59 nM
8. B6  1.85 nM
9. B3  2.25 nM
10. B8  3.03 nM
11. B5  9.47 nM
12. B17  9.81 nM
13. B1  104 nM
14. B2  135 nM
15. B13  169 nM
16. B7  190 nM
17. B15  203 nM

From publication PMC12014896 (2025)
